From patent publication US20060263345A1, “Butyrylcholinesterase variant polypeptides with increased catalytic efficiency and methods of use” (priority 2003, published 2006)
Numbering of substitutions follows the chain as printed. Numbers in names are those of the source. Entries after “also recorded” stand apart in the source; their conditions may differ.

B1: Y332S (protein)
chain: EDDIIIATKNGKVRGMNLTVFGGTVTAFLGIPYAQPPLGRLRFKKPQSLTKWSDIWNATKYANSCCQNIDQSFPGFHGSEMWNPNTDLSEDCLYLNVWIPAPKPKNATVLIWIYGGGFQTGTSSLHVYDGKFLARVERVIVVSMNYRVGALGFLALPGNPEAPGNMGLFDQQLALQWVQKNIAAFGGNPKSVTLFGESAGAASVSLHLLSPGSHSLFTRAILQSGSFNAPWAVTSLYEARNRTLNLAKLTGCSRENETEIIKCLRNKDPQEILLNEAFVVPYGTPLSVNFGPTVDGDFLTDMPDILLELGQFKKTQILVGVNKDEGTAFLVSGAPGFSKDNNSIITRKEFQEGLKIFFPGVSEFGKESILFHYTDWVDDQRPENYREALGDVVGDYNFICPALEFTKKFSEWGNNAFFYYFEHRSSKLPWPEWMGVMHGYEIEFVFGLPLERRDNYTKAEEILSRSIVKRWANFAKYGNPNETQNNSTSWPVFKSTEQKYLTLNTESTRIMTKLRAQQCRFWTSFFPKVLEMTGNIDEAEWEWKAGFHRWNNYMMDWKNQFNDYTSKKESCVGL
modifications: Butyrylcholinesterase variant
B2: F227G (protein)
chain: B1 chain with F227G, S332Y
modifications: Butyrylcholinesterase variant
B3: A328W/Y332S (protein)
chain: B1 chain with A328W
modifications: Butyrylcholinesterase variant
B4: A199S (protein)
chain: B1 chain with A199S, S332Y
modifications: Butyrylcholinesterase variant
B5: F227M (protein)
chain: B1 chain with F227M, S332Y
modifications: Butyrylcholinesterase variant
B6: A328W/Y332P (protein)
chain: B1 chain with A328W, S332P
modifications: Butyrylcholinesterase variant
B7: F227S (protein)
chain: B1 chain with F227S, S332Y
modifications: Butyrylcholinesterase variant
B8: F227T (protein)
chain: B1 chain with F227T, S332Y
modifications: Butyrylcholinesterase variant
B9: A328W/Y332M (protein)
chain: B1 chain with A328W, S332M
modifications: Butyrylcholinesterase variant
B10: F227P (protein)
chain: B1 chain with F227P, S332Y
modifications: Butyrylcholinesterase variant
B11: V331L (protein)
chain: B1 chain with V331L, S332Y
modifications: Butyrylcholinesterase variant
B12: Y332M (protein)
chain: B1 chain with S332M
modifications: Butyrylcholinesterase variant
B13: F227A (protein)
chain: B1 chain with F227A, S332Y
modifications: Butyrylcholinesterase variant
B14: A328W/V331L (protein)
chain: B1 chain with A328W, V331L, S332Y
modifications: Butyrylcholinesterase variant
B15: Y332P (protein)
chain: B1 chain with S332P
modifications: Butyrylcholinesterase variant
B16: F227C (protein)
chain: B1 chain with F227C, S332Y
modifications: Butyrylcholinesterase variant

test: microtiter isotope tracer [3H]-cocaine hydrolysis assay of immobilized butyrylcholinesterase variants; assay type: biochemical; conditions: compared to human butyrylcholinesterase
Text: At the conclusion of the isotope tracer assay, an aliquot of the reaction mix is acidified in order to take advantage of the solubility difference between the product and the substrate at pH 3.0. […] Prospect, Ill.) while [3H]-cocaine is not.
The supernatants isolated from each of the butyrylcholinesterase variant library clones contains variable butyrylcholinesterase enzyme concentrations.
At least three approaches are used to either increase the assay sensitivity or the assay signal.
Km values for (−)-cocaine are determined at 37° C. Vmax and Km values are calculated using Sigma Plot (Jandel Scientific, San Rafael, Calif.). The number of active sites of butyrylcholinesterase is determined by the method of residual activity using echothiopate iodide or diisopropyl fluorophosphates as titrants, as described previously by Masson et al., Biochemistry 36: 2266-2277 (1997). […] Purified human butyrylcholinesterase is used as the standard for the ELISA quantitation assay. The catalytic rate constant, kcat, is calculated by dividing Vmax by the concentration of active sites.

Which “cocaine hydrolysis activity compared to butyrylcholinesterase (in words)” value does the source give for B1 here?
The value was “increased cocaine hydrolysis activity”.

For B2, which “cocaine hydrolysis activity compared to butyrylcholinesterase (in words)” value is on record?
Its value is “enhanced cocaine hydrolase activity”.

Which “cocaine hydrolysis activity compared to butyrylcholinesterase (in words)” value does the source give for B3 here?
The value was “enhanced cocaine hydrolase activity”.

With B4 as the molecule, how does the “cocaine hydrolysis activity compared to butyrylcholinesterase (in words)” value read?
The value was “enhanced cocaine hydrolase activity”.

With B5 as the molecule, how does the “cocaine hydrolysis activity compared to butyrylcholinesterase (in words)” value read?
Its value is “enhanced cocaine hydrolase activity”.

For B6, which “cocaine hydrolysis activity compared to butyrylcholinesterase (in words)” value is on record?
Its value is “enhanced cocaine hydrolase activity”.

With B7 as the molecule, how does the “cocaine hydrolysis activity compared to butyrylcholinesterase (in words)” value read?
The value was “enhanced cocaine hydrolase activity”.

Which “cocaine hydrolysis activity compared to butyrylcholinesterase (in words)” value does the source give for B8 here?
The value was “enhanced cocaine hydrolase activity”.

With B9 as the molecule, how does the “cocaine hydrolysis activity compared to butyrylcholinesterase (in words)” value read?
Its value is “enhanced cocaine hydrolase activity”.

Which “cocaine hydrolysis activity compared to butyrylcholinesterase (in words)” value does the source give for B10 here?
Its value is “enhanced cocaine hydrolase activity”.

With B11 as the molecule, how does the “cocaine hydrolysis activity compared to butyrylcholinesterase (in words)” value read?
Its value is “enhanced cocaine hydrolase activity; also recorded: increased cocaine hydrolysis activity”.

With B12 as the molecule, how does the “cocaine hydrolysis activity compared to butyrylcholinesterase (in words)” value read?
The value was “enhanced cocaine hydrolase activity; also recorded: increased cocaine hydrolysis activity”.

With B13 as the molecule, how does the “cocaine hydrolysis activity compared to butyrylcholinesterase (in words)” value read?
Its value is “enhanced cocaine hydrolase activity”.

Which “cocaine hydrolysis activity compared to butyrylcholinesterase (in words)” value does the source give for B14 here?
The value was “enhanced cocaine hydrolase activity”.

For B15, which “cocaine hydrolysis activity compared to butyrylcholinesterase (in words)” value is on record?
Its value is “enhanced cocaine hydrolase activity; also recorded: increased cocaine hydrolysis activity”.

With B16 as the molecule, how does the “cocaine hydrolysis activity compared to butyrylcholinesterase (in words)” value read?
The value was “enhanced cocaine hydrolase activity”.

same assay, conditions: compared to human butyrylcholinesterase SEQ ID NO: 44; approximate values

Which “increase in cocaine hydrolysis activity relative to butyrylcholinesterase” value does the source give for B2 here?
Its value is “four”.

For B3, which “increase in cocaine hydrolysis activity relative to butyrylcholinesterase” value is on record?
The value was “seven”.

Which “increase in cocaine hydrolysis activity relative to butyrylcholinesterase” value does the source give for B4 here?
Its value is “two-and-a-half”.

Which “increase in cocaine hydrolysis activity relative to butyrylcholinesterase” value does the source give for B5 here?
Its value is “one-and-a-half”.

For B6, which “increase in cocaine hydrolysis activity relative to butyrylcholinesterase” value is on record?
The value was “ten”.

For B7, which “increase in cocaine hydrolysis activity relative to butyrylcholinesterase” value is on record?
Its value is “two”.

Which “increase in cocaine hydrolysis activity relative to butyrylcholinesterase” value does the source give for B8 here?
The value was “two”.

For B9, which “increase in cocaine hydrolysis activity relative to butyrylcholinesterase” value is on record?
The value was “twenty-four”.

For B10, which “increase in cocaine hydrolysis activity relative to butyrylcholinesterase” value is on record?
Its value is “three”.

With B13 as the molecule, how does the “increase in cocaine hydrolysis activity relative to butyrylcholinesterase” value read?
The value was “four”.

For B14, which “increase in cocaine hydrolysis activity relative to butyrylcholinesterase” value is on record?
The value was “sixteen”.

With B16 as the molecule, how does the “increase in cocaine hydrolysis activity relative to butyrylcholinesterase” value read?
Its value is “two”.

same assay, conditions: compared to human butyrylcholinesterase SEQ ID NO: 44; approximate values; listed as SEQ ID NO: 8

For B3, which “increase in cocaine hydrolysis activity relative to butyrylcholinesterase” value is on record?
The value was “eight”.

same assay, conditions: compared to human butyrylcholinesterase; listed as SEQ ID NO: 20

For B1, which “cocaine hydrolysis activity compared to butyrylcholinesterase (in words)” value is on record?
Its value is “increased cocaine hydrolysis activity”.

same assay, conditions: compared to human butyrylcholinesterase; listed as SEQ ID NO: 22

For B12, which “cocaine hydrolysis activity compared to butyrylcholinesterase (in words)” value is on record?
The value was “increased cocaine hydrolysis activity”.

same assay, conditions: compared to human butyrylcholinesterase; listed as SEQ ID NO: 24

Which “cocaine hydrolysis activity compared to butyrylcholinesterase (in words)” value does the source give for B15 here?
The value was “increased cocaine hydrolysis activity”.

same assay, conditions: compared to human butyrylcholinesterase; listed as SEQ ID NO: 26

For B11, which “cocaine hydrolysis activity compared to butyrylcholinesterase (in words)” value is on record?
The value was “increased cocaine hydrolysis activity”.

same assay, conditions: compared to human butyrylcholinesterase; listed as Y322S

For B1, which “cocaine hydrolysis activity compared to butyrylcholinesterase (in words)” value is on record?
Its value is “enhanced cocaine hydrolase activity”.

same assay, conditions: relative to wild-type = 1; catalytic efficiency (Vmax/Km), [3H]-cocaine microtiter assay

Which “Relative Activity of butyrylcholinesterase variants (WT = 1) with enhanced cocaine hydrolase activity” value (shortened to “Relative Activity”) does the source give for B2 here?
The value was 4.0.

For B3, which “Relative Activity” value is on record?
The value was 8.

With B4 as the molecule, how does the “Relative Activity” value read?
Its value is 2.5.

With B5 as the molecule, how does the “Relative Activity” value read?
The value was 1.4.

Which “Relative Activity” value does the source give for B6 here?
The value was 10.

Which “Relative Activity” value does the source give for B7 here?
Its value is 2.3.

For B8, which “Relative Activity” value is on record?
The value was 1.9.

Which “Relative Activity” value does the source give for B9 here?
Its value is 24.

For B10, which “Relative Activity” value is on record?
Its value is 2.9.

For B13, which “Relative Activity” value is on record?
The value was 4.1.

With B14 as the molecule, how does the “Relative Activity” value read?
Its value is 16.

With B16 as the molecule, how does the “Relative Activity” value read?
Its value is 1.9.
